# Patent EP4725966A1, “HUMAN EPIDERMAL GROWTH FACTOR 3 ANTIBODY, PREPARATION METHOD THEREFOR, AND USE THEREOF” (priority 2023, dated 2024)
# B1: hHE4-G1W-DXd (conjugate)
# heavy: QVQLVESGGGLVKPGGSLRLSCAASGFTFSSYVMSWVRQAPGKGLEWVATISDGDSSTYYADSVKGRFTISRDNAKNSLYLQMNSLRAEDTAVYYCARDKGHGYDEGAFVYWGQGTLVTVSS
# light: DIQMTQSPSSLSASVGDRVTITCRASENIYSYLAWYQQKPGKAPKLLIYNAKTLAEGVPSRFSGSGSGTDFTLTISSLQPEDFATYYCQNHYGTPYTFGQGTKLEIKR
# modifications: left off: a dimerising Fc or GST
# Key:
# [1] = tested on: A375 cells overexpressing human HER3; assay: ADC cytotoxicity, CellTiter-Glo; type: cell-based; conditions: Example 21, FIG. 13
# DiFi tumor = assay: Tumor inhibition in DiFi tumor-bearing mice; type: in vivo, Female SCID mice
# Method: (§1) The anti-tumor efficacy of hHE4-G1W-DXd and cHE5-G1W-DXd was evaluated in DiFi tumor-bearing mice. Female SCID mice were subcutaneously injected with DiFi cells in the dorsal region to establish the xenograft model. After tumor establishment, mice were randomly divided into nine groups and treated once per week for three weeks. Three groups served as negative controls: one group received PBS, and two groups received IgG-DXd at low dose (3 mg/kg) and high dose (6 mg/kg), respectively. Experimental groups were administered with hHE4-G1W-DXd, cHE5-G1W-DXd, or patritumab-DXd at 3 mg/kg or 6 mg/kg. The average Dxd-to-antibody ratio was 8. Mouse body weights and tumor volumes were measured.
# [2] = tested on: HER3-expressing HCC1569 cells; assay: ADC cytotoxicity; type: cell-based; conditions: FIG. 13
# Method: (§2) A375 and OVCAR3 cells were seeded in 96-well plates at 5,000 cells per well, and gradient-diluted ADCs (cHE4-G1W-DXd, cHE5-G1W-DXd, cHE7-G1W-DXd, patritumab-DXd, and IgG-DXd) were added. After incubation at 37°C for 5 days, cell viability was measured using CellTiter-Glo (Promega) to evaluate cytotoxicity of the ADCs.
# (§3) The cytotoxicity of antibody-drug conjugates based on hHE4-G1W against HER3-expressing HCC1569, A375, and JIMT-1 tumor cells was tested. Antibody-drug conjugates were prepared as described in Example 11. Hydrophobic interaction chromatography indicated the antibody-to-Dxd ratios for cHE4-G1W-DXd, hHE4-G1W-DXd, patritumab-DXd, and negative control IgG-DXd were 1:7, 1:8, 1:7.8, and 1:8, respectively.
# [3] = tested on: human HER3-overexpressing JIMT-1 cells; assay: ADC cytotoxicity; type: cell-based; conditions: FIG. 13
# Method: as §2, §3
# [4] = tested on: HER3-overexpressing A375 cells; assay: Cell imaging of internalization; type: cell-based; conditions: 100 nM, FIG. 11
# Method: A cell imaging microplate detection system was used to monitor the internalization of hHE4-G1W, hHE4-G1W-DXd, patritumab, and patritumab-DXd after binding to HER3 on the surface of A375 tumor cells. hHE4-G1W, hHE4-G1W-DXd, patritumab, and patritumab-DXd (each 100 nM) were incubated with HER3-overexpressing A375 cells at 4°C for 30 minutes, respectively. Unbound antibodies were removed by washing, and PE-labeled goat anti-human Fc secondary antibody (Jackson) was added. The mixture was incubated at 4°C for 30 minutes, and then the unbound secondary antibody was removed by washing. When the antibodies were bound to the surface of A375 cells and had not yet undergone internalization, these samples were designated as the 0h samples. Fluorescence images were acquired using a Biotek Cytation 1 imaging reader. Cells were then incubated at 37°C for 3 hours and imaged again.
# SW620 tumor = assay: Tumor inhibition in SW620 tumor-bearing mice; type: in vivo, Female SCID mice; conditions: for tumor growth: single dose, FIG. 14
# Method: as §1, with “SW620” for “DiFi”, “with a single dose.” for “once per week for three weeks.”
molecule,measurement,setting,value
B1,cytotoxicity against A375 cells,[1],significant cytotoxicity
same,tumor inhibition compared with patritumab-DXd,"DiFi tumor; low dose of 3 mg/kg, once per week for three weeks",superior tumor inhibition compared with patritumab-DXd
same,tumor inhibition compared with patritumab-DXd,"DiFi tumor; overall conclusion, DiFi",equivalent or improved tumor inhibition against DiFi tumors compared with patritumab-DXd
same,cytotoxicity against HCC1569 cells,[2],significant cytotoxicity
same,cytotoxicity against JIMT-1 cells,[3],significant cytotoxicity
same,cytotoxicity compared with patritumab-DXd,[3]; JIMT-1 cells,superior cytotoxicity compared with patritumab-DXd
same,binding to HER3 on the surface of A375 cells,[4]; 0 hour,bound to HER3 expressed on the cell surface
same,internalization into A375 cells,[4]; after 3 hours at 37°C,internalized into the A375 cells
same,tumor growth,SW620 tumor; 3 mg/kg,prevented tumor growth
same,tumor growth,SW620 tumor; 6 mg/kg,complete tumor regression in one mouse
same,tumor inhibition compared with patritumab-DXd,"SW620 tumor; overall conclusion, SW620",superior tumor inhibition against SW620 tumor compared with patritumab-DXd
